Source: US20240409638A1 (AVACTA LIFE SCIENCES, published 2024)
Several values for one entry are separate records, joined by “and”; a condition that tells them apart may be missing. Equal values may be shown once.

Assays:
[1] = target: T1, human serum albumin (HSA) (human, UniProt P02768 25-609); test: SPR (Biacore 8K): HSA amine-coupled on a CM5 chip, AFFIMER as analyte, pH 6.0, 1:1 Langmuir fit
T1 construct: The assays used bought HSA (Sigma #A37812 in the SPR work); also called HuSA
Protocol: (§1) For the HSA binding kinetic analysis, HSA (Sigma #A37812) was immobilized on a CM5 chip surface using amine coupling in 10 mM sodium acetate (pH 5.0) (Cytvia). […] The chip surface was regenerated with 3 mM NaOH for 20 seconds at a flow rate of 20 μl/min. The kinetic data was blank subtracted and fit to a 1:1 Langmuir binding model (BIAcore evaluation software; Cytiva).

[2] = target: T1, human serum albumin (HSA); test: SPR (Biacore 8K): HSA amine-coupled on a CM5 chip, AFFIMER as analyte, pH 7.4, 1:1 Langmuir fit
Protocol: as §1

[3] = target: T1, human serum albumin (HSA); test: HSA binding ELISA: HSA coated, bound AFFIMER detected with biotinylated anti-cystatin A antibody and streptavidin-HRP
Protocol: (§2) Plates were washed and AFFIMER® polypeptides were detected using streptavidin-HRP for 30 min. After the last washing step, the TMB substrate was added for the development of the experiment and plates were read at 450 nm. The EC₅₀ was then calculated using the interpolated non-linear four-parameters standard curve.

[4] = target: T2, PD-L1 on cells (NCI-H441 cells; aAPC PD-L1/CHO-K1 cells, Promega) (human, UniProt Q9NZQ7 19-290); test: flow cytometry on PD-L1 expressing cells
T2 construct: whole, on cells; also called human PD-L1-expressing CHO-K1 cells; H441 cells endogenously expressing PD-L1

[5] = target: T3, human PD-L1-Fc (R&D Systems) (human, UniProt Q9NZQ7 19-239); test: PD-L1/PD-1 competition ELISA (binding inhibition %): human PD-1-Fc coated, AFFIMER preincubated with huPD-L1-Fc at its EC80, bound PD-L1 detected; blocked ligand: human PD-1-Fc. The table column is headed 'EC50 (nM)'; the text calls the values IC50
T3 construct: Bought reagent; also called huPD-L1-Fc; huPD-L1; not shown: Fc part of the bought fusion
Protocol: Plates were washed two times with washing buffer (PBS, Tween 20 0.1%) with a plate washer and saturated with Casein 5% (Sigma) in PBS for 90 minutes at room temperature (25±1° C.). […] Plates were washed 3 times as described previously. […] Plates were washed 3 times as described previously and Streptavidin-HRP was added, and the plates were incubated for 30 minutes at room temperature (25±1° C.). Plates were washed a last time and the substrate (TMB; Pierce Thermo-Scientific) was added to the plate. After 10 minutes, the reaction was stopped using an acidic solution and the plates were read at absorbance 450-630 nm. The IC₅₀ was then calculated using the interpolated non-linear four-parameters standard curve.

[6] = target: T2, PD-L1 on cells (NCI-H441 cells; aAPC …); test: cell-based or functional assay
[7] = target: T3, human PD-L1-Fc (R&D Systems); test: human PD-L1-Fc/HSA bridging ELISA: huPD-L1-Fc coated, AFFIMER titrated with 10 µM HSA, detection with HRP-conjugated anti-HSA antibody (the signal needs PD-L1 and HSA bound at once)
Protocol: After saturation with 5% casein/PBS buffer, the plates were washed and a dilution of AFFIMER® polypeptides or controls was incubated with HSA at a final concentration of 10 μM for 90 minutes. Plates were then washed, and a […] polyclonal antibody, anti-HSA (HRP-conjugated) (Abcam), was added for 90 minutes. After a last washing step, TMB was added for the development of the experiment and the plates were read at 450 nm. The EC₅₀ was then calculated using the interpolated non-linear four-parameters standard curve (FIG. 10).

[8] = target: T3, human PD-L1-Fc (R&D Systems); test: human PD-L1-Fc binding ELISA: huPD-L1-Fc coated, anti-cystatin A detection, no HSA in the assay buffer
Protocol: as §2

[9] = target: T3, human PD-L1-Fc (R&D Systems); test: SPR (Biacore 8K): human PD-L1-Fc amine-coupled on a CM5 chip, AFFIMER as analyte, 1:1 Langmuir fit
[10] = target: T3, human PD-L1-Fc (R&D Systems); test: human PD-L1-Fc binding ELISA: huPD-L1-Fc coated, anti-cystatin A detection, with 10 µM HSA in the assay buffer
Protocol: as §2

[11] = target: T2, PD-L1 on cells (NCI-H441 cells; aAPC …); test: flow cytometry, % positive cells, NCI-H441 cells (endogenous PD-L1)
Protocol: (§3) Lung cancer cell line (NCI-H441 (ATCC), CHO-K1 recombinant cell line overexpressing PD-L1 aAPC/CHO-K1 (Promega J1252)) and a negative cell line (CHO-K1, ATCC) were used to assess AFFIMER® agent binding capacity to PD-L1 by flow cytometry.
(§4) Briefly, 50 000 cells were added to each well of a 96-well microplate. After this step and each subsequent step, cells were washed twice with PBS+2 mM EDTA using 350g centrifugation for 3 minutes at 4° C. All steps were performed at 4° C. using assay buffer comprising 5% FBS, 2 mM EDTA and 0.05% sodium azide in PBS unless otherwise stated. Independent AFFIMER® agent dilutions were prepared in duplicate and added to the plates. […] Fixation was performed for 10 minutes at 4° C. with Fixation Buffer (Bio-techne FC004). Cells were resuspended in 100 ul assay buffer prior the acquisition of the data. 5000 events were collected by Flow cytometry (Millipore Guava 12HT). The results were gated on live cells and singlets (SSC-H vs SSC-A). The percentage of cells expressing PD-L1 bound by the AFFIMER® agent (positive cells) was determined by using as negative control (background) where the wells were stained with the AF488 conjugated secondary antibody only without AFFIMER® agent. The average of the duplicate wells was used to calculate EC₅₀ using a four-parameter non-linear regression curve fit using Graphpad Prism software. […]

[12] = target: T2, PD-L1 on cells (NCI-H441 cells; aAPC …); test: flow cytometry, % positive cells, aAPC PD-L1/CHO-K1 cells (overexpressing PD-L1)
Protocol: as §3, §4

[13] = target: T2, PD-L1 on cells (NCI-H441 cells; aAPC …); test: flow cytometry on NCI-H441 cells endogenously expressing PD-L1, anti-cystatin A antibody and AF488 secondary antibody, % positive cells
[14] = target: T3, human PD-L1-Fc (R&D Systems); test: SPR (Biacore) kinetics: human PD-L1-Fc immobilised on a CM5 chip, AFFIMER as analyte
[15] = target: T1, human serum albumin (HSA); test: SPR (Biacore) kinetics: HSA immobilised on a CM5 chip, AFFIMER as analyte, pH 7.4
[16] = target: T1, human serum albumin (HSA); test: HSA binding ELISA: HSA coated, anti-cystatin A detection

T3 sequence (Q9NZQ7 19-239 limits assumed): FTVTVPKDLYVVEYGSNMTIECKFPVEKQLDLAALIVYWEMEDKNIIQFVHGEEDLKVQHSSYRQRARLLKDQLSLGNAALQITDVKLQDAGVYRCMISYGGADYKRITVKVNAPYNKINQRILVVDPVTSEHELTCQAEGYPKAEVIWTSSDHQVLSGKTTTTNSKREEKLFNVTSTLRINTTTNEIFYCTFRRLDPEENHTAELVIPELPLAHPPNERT
T2 sequence (Q9NZQ7 19-290): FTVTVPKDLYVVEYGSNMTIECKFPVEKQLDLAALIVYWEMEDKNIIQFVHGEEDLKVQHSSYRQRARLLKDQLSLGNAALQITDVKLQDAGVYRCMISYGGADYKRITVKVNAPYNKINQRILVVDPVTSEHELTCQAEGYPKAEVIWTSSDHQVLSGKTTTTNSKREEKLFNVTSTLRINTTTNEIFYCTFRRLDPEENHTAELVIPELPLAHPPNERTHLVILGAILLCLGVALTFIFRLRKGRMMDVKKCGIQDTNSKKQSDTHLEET
T1 sequence (P02768 25-609): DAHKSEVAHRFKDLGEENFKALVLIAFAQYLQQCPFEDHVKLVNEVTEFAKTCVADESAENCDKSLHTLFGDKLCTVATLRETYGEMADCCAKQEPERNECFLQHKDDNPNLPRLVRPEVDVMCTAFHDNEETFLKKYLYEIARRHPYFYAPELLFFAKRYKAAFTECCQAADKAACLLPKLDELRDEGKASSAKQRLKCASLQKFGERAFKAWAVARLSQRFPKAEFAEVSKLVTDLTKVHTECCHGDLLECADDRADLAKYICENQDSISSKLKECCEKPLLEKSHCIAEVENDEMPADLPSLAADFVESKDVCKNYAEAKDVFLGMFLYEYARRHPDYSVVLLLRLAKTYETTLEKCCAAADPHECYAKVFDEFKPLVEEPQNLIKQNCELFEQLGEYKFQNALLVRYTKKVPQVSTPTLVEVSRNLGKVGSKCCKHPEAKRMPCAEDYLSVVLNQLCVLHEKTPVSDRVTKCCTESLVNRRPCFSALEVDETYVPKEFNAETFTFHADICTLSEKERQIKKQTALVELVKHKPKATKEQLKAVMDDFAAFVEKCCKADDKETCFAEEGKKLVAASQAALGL

| Binder | Kd [1] [nM] | koff [1] [s⁻¹] | kon [1] [M⁻¹ s⁻¹] | Kd [2] [nM] | koff [2] [s⁻¹] | kon [2] [M⁻¹ s⁻¹] | EC50 [3] [nM] | binding result [4] | Kd [14] [nM] | koff [14] [s⁻¹] | kon [14] [M⁻¹ s⁻¹] | Kd [15] [nM] | koff [15] [s⁻¹] | kon [15] [M⁻¹ s⁻¹] | further results |
| --- | --- | --- | --- | --- | --- | --- | --- | --- | --- | --- | --- | --- | --- | --- | --- |
| Clone 80 XT34 (anti-PD-L1 type III AFFIMER® XT in-line fusion monomer XT) (designed binder, Made in E. coli; LC/MS found a +42-43 Da species, assigned as acetylated; also called XT34_1; XT34_2) MIPGGLSEAKPATPEIQEIVDKVKPQLEEKTGETYGKLEAVQYKTQVVRRKHFPQWPGTNYYIKVRAGDNKYMHLKVFKSLDLQPREVFQEDLVLTGYQVDKNKDDELTGFAEAAAKEAAAKEAAAKEAAAKEAAAKEAAAKMIPRGLSEAKPATPEIQEIVDKVKPQLEEKTNETYGKLEAVQYKTQVLANFFQRRWPGSTNYYIKVRAGDNKYMHLKVFNGPWKFRNTDRGADRVLTGYQVDKNKDDELTGFHHHHHH | 3.36 | 0.00271 | 808000 | 5.01 | 0.00364 | 727000 | 0.02 | – | – | – | – | – | – | – | IC50 [5]: 2.3 nM; half-maximal concentration of PD-1/PD-L1 blockade (% of inhibition, NFAT-luciferase reporter cells; IC50) [6]: 105 nM; EC50 [7]: 0.56 nM; EC50 [8]: 0.02 nM; Kd [9]: 0.224 nM; EC50 [10]: 0.03 nM; EC50 [11]: 0.64 nM and 1.28 nM; EC50 [12]: 0.1 nM; EC50 (read off the curve) [13]: ~1 nM |
| Clone 80 XT41 (designed binder, One Clone 80 and two HSA-41 units joined by flexible (G4S)6 linkers; Made in E. coli; No tag is stated for this construct) MIPGGLSEAKPATPEIQEIVDKVKPQLEEKTGETYGKLEAVQYKTQVVRRKHFPQWPGTNYYIKVRAGDNKYMHLKVFKSLDLQPREVFQEDLVLTGYQVDKNKDDELTGFGGGGSGGGGSGGGGSGGGGSGGGGSGGGGSMIPRGLSEAKPATPEIQEIVDKVKPQLEEKTNETYGKLEAVQYKTQVLANFFQRRWPGSTNYYIKVRAGDNKYMHLKVFNGPWKFRNTDRGADRVLTGYQVDKNKDDELTGFGGGGSGGGGSGGGGSGGGGSGGGGSGGGGSMIPRGLSEAKPATPEIQEIVDKVKPQLEEKTNETYGKLEAVQYKTQVLANFFQRRWPGSTNYYIKVRAGDNKYMHLKVFNGPWKFRNTDRGADRVLTGYQVDKNKDDELTGF | – | – | – | – | – | – | – | – | 0.172 | 0.000212 | 1.24e+06 | 0.18 | 0.00189 | 1.05e+07 | – |
| Clone 80 XT40 (designed binder, HSA-41 sits in the middle position between two Clone 80 units, joined by rigid A(EAAAK)6 linkers; Made in E. coli; No tag is stated for this construct) MIPGGLSEAKPATPEIQEIVDKVKPQLEEKTGETYGKLEAVQYKTQVVRRKHFPQWPGTNYYIKVRAGDNKYMHLKVFKSLDLQPREVFQEDLVLTGYQVDKNKDDELTGFAEAAAKEAAAKEAAAKEAAAKEAAAKEAAAKMIPRGLSEAKPATPEIQEIVDKVKPQLEEKTNETYGKLEAVQYKTQVLANFFQRRWPGSTNYYIKVRAGDNKYMHLKVFNGPWKFRNTDRGADRVLTGYQVDKNKDDELTGFFAEAAAKEAAAKEAAAKEAAAKEAAAKEAAAKMIPGGLSEAKPATPEIQEIVDKVKPQLEEKTGETYGKLEAVQYKTQVVRRKHFPQWPGTNYYIKVRAGDNKYMHLKVFKSLDLQPREVFQEDLVLTGYQVDKNKDDELTGF | – | – | – | – | – | – | – | – | 0.0668 | 9.33e-05 | 1.4e+06 | 1.54 | 0.00273 | 1.77e+06 | – |

The next lines start with results.

| Kd [1] [nM] | koff [1] [s⁻¹] | kon [1] [M⁻¹ s⁻¹] | Kd [2] [nM] | koff [2] [s⁻¹] | kon [2] [M⁻¹ s⁻¹] | EC50 [3] [nM] | binding result [4] | Kd [14] [nM] | koff [14] [s⁻¹] | kon [14] [M⁻¹ s⁻¹] | Kd [15] [nM] | koff [15] [s⁻¹] | kon [15] [M⁻¹ s⁻¹] | Binder | further results |
| --- | --- | --- | --- | --- | --- | --- | --- | --- | --- | --- | --- | --- | --- | --- | --- |
| 1.28 | 0.00205 | 1.61e+06 | 1.45 | 0.00259 | 1.79e+06 | 0.04 | no binding | – | – | – | – | – | – | DC XT46 (trimer in-line fusion XT control) (designed binder) MIPGGLSEAKPATPEIQEIVDKVKPQLEEKTGETYGKLEAVQYKTQVVGGGGGGGGGGTNYYIKVRAGDNKYMHLKVFKSLGGGGGGGGGEDLVLTGYQVDKNKDDELTGFAEAAAKEAAAKEAAAKEAAAKEAAAKEAAAKMIPGGLSEAKPATPEIQEIVDKVKPQLEEKTGETYGKLEAVQYKTQVVGGGGGGGGGGTNYYIKVRAGDNKYMHLKVFKSLGGGGGGGGGEDLVLTGYQVDKNKDDELTGFAEAAAKEAAAKEAAAKEAAAKEAAAKEAAAKMIPRGLSEAKPATPEIQEIVDKVKPQLEEKTNETYGKLEAVQYKTQVLANFFQRRWPGSTNYYIKVRAGDNKYMHLKVFNGPWKFRNTDRGADRVLTGYQVDKNKDDELTGF | – |
| 7.36 | 0.00276 | 375000 | 1.08 | 0.00272 | 2.52e+06 | 0.02 | no binding | – | – | – | – | – | – | DC XT45 (dimer in-line fusion XT control) (designed binder) MIPGGLSEAKPATPEIQEIVDKVKPQLEEKTGETYGKLEAVQYKTQVVGGGGGGGGGGTNYYIKVRAGDNKYMHLKVFKSLGGGGGGGGGEDLVLTGYQVDKNKDDELTGFAEAAAKEAAAKEAAAKEAAAKEAAAKEAAAKMIPRGLSEAKPATPEIQEIVDKVKPQLEEKTNETYGKLEAVQYKTQVLANFFQRRWPGSTNYYIKVRAGDNKYMHLKVFNGPWKFRNTDRGADRVLTGYQVDKNKDDELTGF | – |
| – | – | – | – | – | – | – | – | – | – | – | 1.07 | 0.00436 | 4.06e+06 | HSA-41 (anti-serum albumin AFFIMER® polypeptide, monomer) (designed binder, No tags are stated; also called HSA-41 monomer; XT polypeptide) MIPRGLSEAKPATPEIQEIVDKVKPQLEEKTNETYGKLEAVQYKTQVLANFFQRRWPGSTNYYIKVRAGDNKYMHLKVFNGPWKFRNTDRGADRVLTGYQVDKNKDDELTGF | EC50 [16]: 0.85 nM |
